Biological target: capsid triplex (heterotrimer of two mCP and one mC-BP) (human cytomegalovirus (HCMV) strain AD169) (UniProt P16728)
Test: cryo-EM structure

## tegument protein pp150 (from UniProt P08318 1-1048) (natural protein)
  stoichiometry N (copies per triplex): 3

Reference: article PMC3744435
